Paper PMC5289526, “Crystal Structure and Catalytic Mechanism of CouO, a Versatile C-Methyltransferase from Streptomyces rishiriensis” (PLoS ONE, 2017)

Target: the molecule itself
Assay: SEC; last step of purification; HiLoad 16/60 Superdex 200 pg, 1 ml/min, Hepes pH 7, 100mM NaCl; calibrated with Bio-Rad gel filtration standard

B1: CouO, C-methyltransferase from Streptomyces rishiriensis (enzyme)
chain: MKIEPITGSEAEAFHRMGSRAFERYNEFVDLLVGAGIADGQTVVDLCCGSGELEIILTSRFPSLNLVGVDLSEDMVRIARDYAAEQGKELEFRHGDAQSPAGMEDLLGKADLVVSRHAFHRLTRLPAGFDTMLRLVKPGGAILNVSFLHLSDFDEPGFRTWVRFLKERPWDAEMQVAWALAHYYAPRLQDYRDALAQAADETPVSEQRIWVDDQGYGVATVKCFARRAAA
notes: CouO, SAM-dependent C-methyltransferase of coumermycin A1 biosynthesis, Streptomyces rishiriensis; expected MW 26 kDa; also called CouO-WT; source: purified (last step size exclusion chromatography)
- stoichiometry N: 2
